Results taken from publication PMC10877310 (Current biology : CB, 2023).

B1: 6XHis-557-C (Abl2-557-1182, C-terminal half) (domain or fragment, murine, UniProt Q4JIM5 557-1182, looked up)
chain: GRTASSSSVVPYLPRLPLLPSKTRTLRKQGENKENLDGGLDAAESLASSSAPAGFIRSTQASSGSPALPRKQRDKSPSSLLEDAKETCFTRDRKGGFFSSFMKKRNAPTPPKRSSSFREMENQPHKKYELTGNFSPVASLQNADGFSVAPSQQEPNLVPAKCYGGSFAQRNLCADDDSGGGGGSGTAGGGWSGITGFFTPRLIKKTLGLRAGKPTASDDTSKPFPRSNSTSSMSSGLPEQDRMAMTLPRNCQRSKLQLERTVSTSSQPEENVDRANDMLPKKSEEGAAPARERPKAKLLPRGATALPLRAPDPAITESDSPGVGVAGVAAAPKGKERNGGTRLGVAGVPEDGEQLGWSSPAKAVAVLPTTHNHKVPVLISPTLKHTPADVQLIGTDSQGNKFKLLSEHQVTSSGDKDRPRRVKPKCAPPPPPVMRLLQHPSTCSDPEEEPTAPPAGQHTPETQEGGKKAAPGPVPSSGKPGRPVMPPPQVPLPTSSISPAKMANGTAGTKVALRKTKQAAEKISADKISKEALLECADLLSSAITEPVPNSQLVDTGHQLLDYCSGYVDSIPQTRNKFAFREAVSKLELSLQELQVSSTAAGVPGTNPVLNNLLSCVQEISDVVQR
B2: 6XHis-688-924 (Abl2-688-924, site I) (domain or fragment, murine, UniProt Q4JIM5 688-924, looked up)
chain: GNFSPVASLQNADGFSVAPSQQEPNLVPAKCYGGSFAQRNLCADDDSGGGGGSGTAGGGWSGITGFFTPRLIKKTLGLRAGKPTASDDTSKPFPRSNSTSSMSSGLPEQDRMAMTLPRNCQRSKLQLERTVSTSSQPEENVDRANDMLPKKSEEGAAPARERPKAKLLPRGATALPLRAPDPAITESDSPGVGVAGVAAAPKGKERNGGTRLGVAGVPEDGEQLGWSSPAKAVAVLP
B3: Abl2Δ688-790-eGFP, Q4JIM5 74-1182 (natural protein)
chain: EVLHRPFGCDAESQALNEAIRWSSKENLLGATESDPNLFVALYDFVASGDNTLSITKGEKLRVLGYNQNGEWSEVRSKNGQGWVPSNYITPVNSLEKHSWYHGPVSRSAAEYLLSSLINGSFLVRESESSPGQLSISLRYEGRVYHYRINTTTDSKVYVTAESRFSTLAELVHHHSTVADGLVTTLHYPAPKCNKPTVYGVSPIHDKWEMERTDITMKHKLGGGQYGEVYVGVWKKYSLTVAVKTFKEDTMEVEEFLKEAAVMKEIKHPNLVQLLGVCTLEPPFYIVTEYMPYGNLLDYLRECSREEVTAVVLLYMATQISSAMEYLEKKNFIHRDLAARNCLVGENHVVKVADFGLSRLMTGDTYTAHAGAKFPIKWTAPESLAYNTFSIKSDVWAFGVLLWEIATYGMSPYPGIDLSQVYDLLEKGYRMEQPEGCPPKVYELMRACWKWSPADRPSFAETHQAFETMFHDSSISEEVAEELGRTASSSSVVPYLPRLPLLPSKTRTLRKQGENKENLDGGLDAAESLASSSAPAGFIRSTQASSGSPALPRKQRDKSPSSLLEDAKETCFTRDRKGGFFSSFMKKRNAPTPPKRSSSFREMENQPHKKYELTSGLPEQDRMAMTLPRNCQRSKLQLERTVSTSSQPEENVDRANDMLPKKSEEGAAPARERPKAKLLPRGATALPLRAPDPAITESDSPGVGVAGVAAAPKGKERNGGTRLGVAGVPEDGEQLGWSSPAKAVAVLPTTHNHKVPVLISPTLKHTPADVQLIGTDSQGNKFKLLSEHQVTSSGDKDRPRRVKPKCAPPPPPVMRLLQHPSTCSDPEEEPTAPPAGQHTPETQEGGKKAAPGPVPSSGKPGRPVMPPPQVPLPTSSISPAKMANGTAGTKVALRKTKQAAEKISADKISKEALLECADLLSSAITEPVPNSQLVDTGHQLLDYCSGYVDSIPQTRNKFAFREAVSKLELSLQELQVSSTAAGVPGTNPVLNNLLSCVQEISDVVQR
B4: Abl2-eGFP, Q4JIM5 74-1182 (natural protein)
chain: EVLHRPFGCDAESQALNEAIRWSSKENLLGATESDPNLFVALYDFVASGDNTLSITKGEKLRVLGYNQNGEWSEVRSKNGQGWVPSNYITPVNSLEKHSWYHGPVSRSAAEYLLSSLINGSFLVRESESSPGQLSISLRYEGRVYHYRINTTTDSKVYVTAESRFSTLAELVHHHSTVADGLVTTLHYPAPKCNKPTVYGVSPIHDKWEMERTDITMKHKLGGGQYGEVYVGVWKKYSLTVAVKTFKEDTMEVEEFLKEAAVMKEIKHPNLVQLLGVCTLEPPFYIVTEYMPYGNLLDYLRECSREEVTAVVLLYMATQISSAMEYLEKKNFIHRDLAARNCLVGENHVVKVADFGLSRLMTGDTYTAHAGAKFPIKWTAPESLAYNTFSIKSDVWAFGVLLWEIATYGMSPYPGIDLSQVYDLLEKGYRMEQPEGCPPKVYELMRACWKWSPADRPSFAETHQAFETMFHDSSISEEVAEELGRTASSSSVVPYLPRLPLLPSKTRTLRKQGENKENLDGGLDAAESLASSSAPAGFIRSTQASSGSPALPRKQRDKSPSSLLEDAKETCFTRDRKGGFFSSFMKKRNAPTPPKRSSSFREMENQPHKKYELTGNFSPVASLQNADGFSVAPSQQEPNLVPAKCYGGSFAQRNLCADDDSGGGGGSGTAGGGWSGITGFFTPRLIKKTLGLRAGKPTASDDTSKPFPRSNSTSSMSSGLPEQDRMAMTLPRNCQRSKLQLERTVSTSSQPEENVDRANDMLPKKSEEGAAPARERPKAKLLPRGATALPLRAPDPAITESDSPGVGVAGVAAAPKGKERNGGTRLGVAGVPEDGEQLGWSSPAKAVAVLPTTHNHKVPVLISPTLKHTPADVQLIGTDSQGNKFKLLSEHQVTSSGDKDRPRRVKPKCAPPPPPVMRLLQHPSTCSDPEEEPTAPPAGQHTPETQEGGKKAAPGPVPSSGKPGRPVMPPPQVPLPTSSISPAKMANGTAGTKVALRKTKQAAEKISADKISKEALLECADLLSSAITEPVPNSQLVDTGHQLLDYCSGYVDSIPQTRNKFAFREAVSKLELSLQELQVSSTAAGVPGTNPVLNNLLSCVQEISDVVQR
B5: 6XHis-1024-1090 (Abl2-1024-1090, site II) (domain or fragment, murine, UniProt Q4JIM5 1024-1090, looked up)
chain: KAAPGPVPSSGKPGRPVMPPPQVPLPTSSISPAKMANGTAGTKVALRKTKQAAEKISADKISKEALL

Columns and labels:
[1] = biological target: porcine brain tubulin dimers (porcine, UniProt P02550 1-451; Q767L7 1-444); assay: BLI
[2] = biological target: microtubules polymerised from porcine brain tubulin (porcine), P02550; assay: co-sedimentation
microtubules polymerised from porcine brain tubulin (porcine), P02550, sequence (P02550 whole entry, chain 1 of 2): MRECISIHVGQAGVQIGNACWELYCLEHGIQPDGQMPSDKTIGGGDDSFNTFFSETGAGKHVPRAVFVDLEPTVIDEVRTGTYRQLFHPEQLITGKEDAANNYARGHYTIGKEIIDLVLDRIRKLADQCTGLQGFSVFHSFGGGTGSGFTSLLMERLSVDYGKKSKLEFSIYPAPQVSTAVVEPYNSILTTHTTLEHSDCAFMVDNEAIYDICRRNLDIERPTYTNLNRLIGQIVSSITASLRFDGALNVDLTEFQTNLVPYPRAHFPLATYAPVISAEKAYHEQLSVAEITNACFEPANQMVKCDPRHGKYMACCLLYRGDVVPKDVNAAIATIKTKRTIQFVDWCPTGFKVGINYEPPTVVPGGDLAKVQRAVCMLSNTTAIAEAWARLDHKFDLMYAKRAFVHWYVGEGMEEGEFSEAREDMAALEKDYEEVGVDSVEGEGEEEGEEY
microtubules polymerised from porcine brain tubulin (porcine), P02550, sequence (P02554 whole entry, chain 2 of 2, further chain): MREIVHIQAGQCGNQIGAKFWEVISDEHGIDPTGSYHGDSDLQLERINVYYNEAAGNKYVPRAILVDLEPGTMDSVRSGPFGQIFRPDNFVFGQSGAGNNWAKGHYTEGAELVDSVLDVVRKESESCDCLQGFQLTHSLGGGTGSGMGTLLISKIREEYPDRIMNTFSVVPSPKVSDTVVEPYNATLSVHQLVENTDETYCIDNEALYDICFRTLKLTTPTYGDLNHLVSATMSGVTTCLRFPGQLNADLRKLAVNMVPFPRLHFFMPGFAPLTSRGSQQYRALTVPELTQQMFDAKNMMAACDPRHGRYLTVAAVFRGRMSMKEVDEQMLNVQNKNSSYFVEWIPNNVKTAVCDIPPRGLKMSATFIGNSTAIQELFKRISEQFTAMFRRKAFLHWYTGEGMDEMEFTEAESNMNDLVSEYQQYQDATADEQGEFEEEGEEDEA

| Binder | Kd [1] [nM] | Kd [2] [nM] |
| --- | --- | --- |
| B1 | 17 ± 8 |  |
| B2 | 118 ± 39 |  |
| B3 |  | 400 |
| B4 |  | 320 |
| B5 | 252 ± 123 |  |
